This is an account of results in the supplement of paper PMC11246515.

± gives the standard deviation of the averaged measurements.

This data set can be described thus: total protein half-life in vivo (active degradation + dilution); higher = more stable protein.
Where [1] appears, read: E. coli NCM3722 delta-clpP delta-lon delta-hslV, growth: N-lim chemostat, doubling time 6 h.
Where [2] appears, read: E. coli NCM3722 delta-clpP, growth: N-lim chemostat, doubling time 6 h.
Where [3] appears, read: E. coli NCM3722 delta-hslV, growth: N-lim chemostat, doubling time 6 h.
Setting [4] is: E. coli NCM3722 delta-lon, growth: N-lim chemostat, doubling time 6 h.
The mark [5] stands for this setting: E. coli NCM3722 delta-smpB, growth: N-lim chemostat, doubling time 6 h.
Setting [6] is: wild type E. coli NCM3722, growth: C-lim chemostat, doubling time 3 h.
[7] abbreviates: wild type E. coli NCM3722, growth: C-lim chemostat, doubling time 6 h.
Setting [8] is: wild type E. coli NCM3722, growth: C-lim chemostat, doubling time 12 h.
Setting [9] is: wild type E. coli NCM3722, growth: N-lim chemostat, doubling time 6 h.
The mark [10] stands for this setting: wild type E. coli NCM3722, growth: N-lim chemostat, doubling time 12 h.
Where [11] appears, read: wild type E. coli NCM3722, growth: P-lim chemostat, doubling time 6 h.
The mark [12] stands for this setting: wild type E. coli NCM3722, growth: P-lim chemostat, doubling time 12 h.

For the sequence “MLRVYHSNRLDVLEALMEFIVERERLDDPFEPEMILVQSTGMAQWLQMTLSQKFGIAANIDFPLPASFIWDMFVRVLPEIPKESAFNKQSMSWKLMTLLPQLLEREDFTLLRHYLTDDSDKRKLFQLSSKAADLFDQYLVYRPDWLAQWETGHLVEGLGEAQAWQAPLWKALVEYTHQLGQPRWHRANLYQRFIETLESATTCPPGLPSRVFICGISALPPVYLQALQALGKHIEIHLLFTNPCRYYWGDIKDPAYLAKLLTRQRRHSFEDRELPLFRDSENAGQLFNSDGEQDVGNPLLASWGKLGRDYIYLLSDLESSQELDAFVDVTPDNLLHNIQSDILELENRAVAGVNIEEFSRSDNKRPLDPLDSSITFHVCHSPQREVEVLHDRLLAMLEEDPTLTPRDIIVMVADIDSYSPFIQAVFGSAPADRYLPYAISDRRARQSHPVLEAFISLLSLPDSRFVSEDVLALLDVPVLAARFDITEEGLRYLRQWVNESGIRWGIDDDNVRELELPATGQHTWRFGLTRMLLGYAMESAQGEWQSVLPYDESSGLIAELVGHLASLLMQLNIWRRGLAQERPLEEWLPVCRDMLNAFFLPDAETEAAMTLIEQQWQAIIAEGLGAQYGDAVPLSLLRDELAQRLDQERISQRFLAGPVNICTLMPMRSIPFKVVCLLGMNDGVYPRQLAPLGFDLMSQKPKRGDRSRRDDDRYLFLEALISAQQKLYISYIGRSIQDNSERFPSVLVQELIDYIGQSHYLPGDEALNCDESEARVKAHLTCLHTRMPFDPQNYQPGERQSYAREWLPAASQAGKAHSEFVQPLPFTLPETVPLETLQRFWAHPVRAFFQMRLQVNFRTEDSEIPDTEPFILEGLSRYQINQQLLNALVEQDDAERLFRRFRAAGDLPYGAFGEIFWETQCQEMQQLADRVIACRQPGQSMEIDLACNGVQITGWLPQVQPDGLLRWRPSLLSVAQGMQLWLEHLVYCASGGNGESRLFLRKDGEWRFPPLAAEQALHYLSQLIEGYREGMSAPLLVLPESGGAWLKTCYDAQNDAMLDDDSTLQKARTKFLQAYEGNMMVRGEGDDIWYQRLWRQLTPETMEAIVEQSQRFLLPLFRFNQS”, the “total protein half-life in vivo” value under setting [1] turned out to be 5.23 ± 0.17 h; the “total protein half-life in vivo” value under setting [2] is 4.28 ± 0.21 h; the “total protein half-life in vivo” value under setting [3] was found to be 3.58 ± 0.068 h; the “total protein half-life in vivo” value under setting [4] was determined as 4.13 ± 0.12 h; the “total protein half-life in vivo” value under setting [5] was 3.63 ± 0.41 h; the “total protein half-life in vivo” value under setting [6] turned out to be 3.44 ± 0.61 h. For the same sequence, the “total protein half-life in vivo” value under setting [7] was 5.57 ± 0.32 h; the “total protein half-life in vivo” value under setting [8] stood at 13 ± 2.4 h; the “total protein half-life in vivo” value under setting [9] stood at 4.32 ± 0.95 h; the “total protein half-life in vivo” value under setting [10] is 6.21 ± 0.64 h; the “total protein half-life in vivo” value under setting [11] is 6.1 ± 0.47 h; the “total protein half-life in vivo” value under setting [12] came out at 11.3 ± 0.4 h.

Turning to “MSKRYFVTGTDTEVGKTVASCALLQAAKAAGYRTAGYKPVASGSEKTPEGLRNSDALALQRNSSLQLDYATVNPYTFAEPTSPHIISAQEGRPIESLVMSAGLRALEQQADWVLVEGAGGWFTPLSDTFTFADWVTQEQLPVILVVGVKLGCINHAMLTAQVIQHAGLTLAGWVANDVTPPGKRHAEYMTTLTRMIPAPLLGEIPWLAENPENAATGKYINLALL”, the “total protein half-life in vivo” value was found to be 5.58 ± 0.28 h under setting [1]; 5.37 ± 1.1 h under setting [2]; 4.33 ± 0.7 h under setting [3]; 5.17 ± 0.34 h under setting [4]; 4.64 ± 0.34 h under setting [5]; 3.06 ± 0.18 h under setting [6]. The “total protein half-life in vivo” value under setting [7] stood at 6.24 ± 0.58 h; the “total protein half-life in vivo” value under setting [9] stood at 5.44 ± 0.92 h; the “total protein half-life in vivo” value under setting [10] was 9.86 ± 1.2 h; the “total protein half-life in vivo” value under setting [11] turned out to be 5.77 ± 0.12 h; the “total protein half-life in vivo” value under setting [12] was found to be 12.5 ± 0.99 h.

For the sequence “MAKNTSCGVQLRIRGKVQGVGFRPFVWQLAQQLNLHGDVCNDGDGVEVRLREDPETFLVQLYQHCPPLARIDSVEREPFIWSQLPTEFTIRQSTGGTMNTQIVPDAATCPACLAEMNTPGERRYRYPFINCTHCGPRFTIIRAMPYDRPFTVMAAFPLCPACDKEYRDPLDRRFHAQPVACPECGPHLEWVSHGEHAEQEAALQAAIAQLKMGKIVAIKGIGGFHLACDARNSNAVATLRARKHRPAKPLAVMLPVADGLPDAARQLLTTPAAPIVLVDKKYVPELCDDIAPDLNEVGVMLPANPLQHLLLQELQCPLVMTSGNLSGKPPAISNEQALADLQGIADGFLIHNRDIVQRMDDSVVRESGEMLRRSRGYVPDALALPPGFKNVPPVLCLGADLKNTFCLVRGEQAVLSQHLGDLSDDGIQMQWREALRLMQNIYDFTPQYVVHDAHPGYVSSQWAREMNLPTQTVLHHHAHAAACLAEHQWPLDGGDVIALTLDGIGMGENGALWGGECLRVNYRECEHLGGLPAVALPGGDLAAKQPWRNLLAQCLRFVPEWQNYSETASVQQQNWSVLARAIERGINAPLASSCGRFFDAVAAALGCAPATLSYEGEAACALEALAASCHGVTHPVTMPRVDNQLDLATFWQQWLNWQAPVNQRAWAFHDALAQGFAALMREQATMRGITTLVFSGGVIHNRLLRARLAHYLADFTLLFPQSLPAGDGGLSLGQGVIAAARWLAGEVQNG”, the “total protein half-life in vivo” value under setting [8] is 9.74 ± 2.4 h.

As to “MLQNIRIVLVETSHTGNMGSVARAMKTMGLTNLWLVNPLVKPDSQAIALAAGASDVIGNAHIVDTLDEALAGCSLVVGTSARSRTLPWPMLDPRECGLKSVAEAANTPVALVFGRERVGLTNEELQKCHYHVAIAANPEYSSLNLAMAVQVIAYEVRMAWLATQENGEQVEHEETPYPLVDDLERFYGHLEQTLLATGFIRENHPGQVMNKLRRLFTRARPESQELNILRGILASIEQQNKGNKAE [P0AE01]”, the “total protein half-life in vivo” value by setting is: under setting [1], 4.67 ± 0.57 h; under setting [2], 4.013 ± 0.028 h; under setting [3], 4.18 ± 0.18 h; under setting [4], 5.15 ± 0.92 h; under setting [5], 4.43 ± 0.4 h; under setting [6], 2.8 ± 0.32 h. In addition, the “total protein half-life in vivo” value was determined as 5.41 ± 0.56 h under setting [7]; 9.64 ± 0.46 h under setting [8]; 4.34 ± 0.23 h under setting [9]; 7.52 ± 0.47 h under setting [10]; 5.22 ± 0.042 h under setting [11]; 10.6 ± 0.77 h under setting [12].

Consider “MIIATAGHVDHGKTTLLQAITGVNADRLPEEKKRGMTIDLGYAYWPQPDGRVPGFIDVPGHEKFLSNMLAGVGGIDHALLVVACDDGVMAQTREHLAILQLTGNPMLTVALTKADRVDEARVDEVERQVKEVLREYGFAEAKLFITAATEGRGMDALREHLLQLPEREHASQHSFRLAIDRAFTVKGAGLVVTGTALSGEVKVGDSLWLTGVNKPMRVRALHAQNQPTETANAGQRIALNIAGDAEKEQINRGDWLLADVPPEPFTRVIVELQTHTPLTQWQPLHIHHAASHVTGRVSLLEDNLAELVFDTPLWLADNDRLVLRDISARNTLAGARVVMLNPPRRGKRKPEYLQWLASLARAQSDADALSVHLERGAVNLADFAWARQLNGEGMRELLQQPGYIQAGYSLLNAPVAARWQRKILDTLATYHEQHRDEPGPGRERLRRMALPMEDEALVLLLIEKMRESGDIHSHHGWLHLPDHKAGFSEEQQAIWQKAEPLFGDEPWWVRDLAKETGTDEQAMRLTLRQAAQQGIITAIVKDRYYRNDRIVEFANMIRDLDQECGSTCAADFRDRLGVGRKLAIQILEYFDRIGFTRRRGNDHLLRDALLFPEK”, for which the “total protein half-life in vivo” value amounted to 6.2 ± 0.45 h under setting [1]; 4.93 ± 0.33 h under setting [2]; 5.22 ± 0.44 h under setting [3]; 5.39 ± 0.23 h under setting [4]; 4.57 ± 0.11 h under setting [5]; 2.77 ± 0.057 h under setting [6]. Moreover, the “total protein half-life in vivo” value reads like this: under setting [7], 5.56 ± 0.59 h; under setting [8], 9.26 ± 0.52 h; under setting [9], 4.97 ± 0.16 h; under setting [10], 8.6 ± 0.22 h; under setting [11], 4.25 ± 0.27 h; under setting [12], 6.81 ± 0.26 h.

As for “MILIIYAHPYPHHSHANKRMLEQARTLEGVEIRSLYQLYPDFNIDIAAEQEALSRADLIVWQHPMQWYSIPPLLKLWIDKVFSHGWAYGHGGTALHGKHLLWAVTTGGGESHFEIGAHPGFDVLSQPLQATAIYCGLNWLPPFAMHCTFICDDETLEGQARHYKQRLLEWQEAHHG [P0A754]”, the “total protein half-life in vivo” value reads like this: under setting [2], 6.16 h; under setting [3], 5.27 h; under setting [4], 6.37 h; under setting [5], 6.82 h; under setting [7], 4.93 h; under setting [8], 10.9 ± 0.14 h. For the same sequence, the “total protein half-life in vivo” value runs as follows: under setting [10], 10.5 ± 2.2 h; under setting [11], 6.43 ± 0.21 h; under setting [12], 10.3 ± 1.5 h.

As for “MLERLSWKRLVLELLLCCLPAFILGAFFGYLPWFLLASVTGLLIWHFWNLLRLSWWLWVDRSMTPPPGRGSWEPLLYGLHQMQLRNKKRRRELGNLIKRFRSGAESLPDAVVLTTEEGGIFWCNGLAQQILGLRWPEDNGQNILNLLRYPEFTQYLKTRDFSRPLNLVLNTGRHLEIRVMPYTHKQLLMVARDVTQMHQLEGARRNFFANVSHELRTPLTVLQGYLEMMNEQPLEGAVREKALHTMREQTQRMEGLVKQLLTLSKIEAAPTHLLNEKVDVPMMLRVVEREAQTLSQKKQTFTFEIDNGLKVSGNEDQLRSAISNLVYNAVNHTPEGTHITVRWQRVPHGAEFSVEDNGPGIAPEHIPRLTERFYRVDKARSRQTGGSGLGLAIVKHAVNHHESRLNIESTVGKGTRFSFVIPERLIAKNSD”, the “total protein half-life in vivo” value runs as follows: under setting [1], 6.39 ± 0.09 h; under setting [2], 6.38 ± 0.28 h; under setting [3], 5.95 ± 1.3 h; under setting [5], 6.31 ± 0.26 h; under setting [6], 3.118 ± 0.019 h; under setting [7], 5.82 ± 0.35 h. Further, the “total protein half-life in vivo” value is, setting by setting: under setting [8], 12.3 ± 1.7 h; under setting [9], 6.4435 ± 0.0015 h; under setting [10], 12.7 ± 2 h; under setting [11], 6.19 ± 0.21 h; under setting [12], 12.2 ± 0.24 h.

With “MKVTFEQLKAAFNRVLISRGVDSETADACAEMFARTTESGVYSHGVNRFPRFIQQLENGDIIPDAQPKRITSLGAIEQWDAQRSIGNLTAKKMMDRAIELAADHGIGLVALRNANHWMRGGSYGWQAAEKGYIGICWTNSIAVMPPWGAKECRIGTNPLIVAIPSTPITMVDMSMSMFSYGMLEVNRLAGRQLPVDGGFDDEGNLTKEPGVIEKNRRILPMGYWKGSGMSIVLDMIATLLSDGASVAEVTQDNSDEYGISQIFIAIEVDKLIDGPTRDAKLQRIMDYVTSAERADENQAIRLPGHEFTTLLAENRRNGITVDDSVWAKIQAL”, the “total protein half-life in vivo” value reads like this: under setting [6], 2.77 ± 0.16 h; under setting [7], 5.23 ± 0.17 h; under setting [8], 9.43 ± 1.9 h.

With “MNAYELQALRHIFAMTIDECATWIAQTGDSESWRQWENGKCAIPDRVVEQLLAMRQQRKKHLHAIIEKINNRIGNNTMRFFPDLTAFQRVYPDGNFIDWKIYQSVAAELYAHDLERLC”, the “total protein half-life in vivo” value amounted to 4.85 h under setting [1], 2.05 h under setting [6], 3.14 ± 0.49 h under setting [7] and 5.24 ± 0.46 h under setting [8].
